From article PMC5719345
pKd: −log10 of the molar value. Read-outs that look alike come from different tables or passages of the source.

What was measured:
[1] = target: N-terminus of influenza B nucleoprotein (B/NP_(1-70)) (influenza B virus (strain B/Memphis/13/03)); assay: ITC; MicroCal ITC200; 16 × 2.4 µL injections of 150 µM importin-α7 into 20 µM B/NP_TAIL; 20 mM Tris-HCl pH 7.5, 150 mM NaCl; 20 °C by the methods (25 °C by the legend of Figure 6); triplicate; single-binding site model
[2] = target: importin-α1 (Mus musculus) (UniProt P52293); conditions: cited from earlier work
[3] = target: importin-α1 (Mus musculus) (UniProt P52293); conditions: cited from earlier work; remark: listed apart in the source

Chain of N-terminus of influenza B nucleoprotein (B/NP_(1-70)) (influenza B virus (strain B/Memphis/13/03)) (P04665 1-70): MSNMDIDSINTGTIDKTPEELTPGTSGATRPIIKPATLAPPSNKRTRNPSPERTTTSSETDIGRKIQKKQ

human importin-α7 (from UniProt O60684 1-536) (natural protein)
pKd [1]: 6.07
stoichiometry N [1]: 1

influenza A nucleoprotein NLS2 213-216 (from UniProt Q289M3)
pKd [2]: 4.15

influenza A nucleoprotein tail NTAIL (from UniProt Q289M3)
pKd [3]: 5.77
